US20210139574A1

Assays:
Experiment in all cases: cell-based or functional assay
[1] = target: Tau seeds: sonicated human insoluble Tau from patients with frontotemporal dementia (FTD-PHF) (human) (UniProt P10636)
[2] = target: Tau seeds: sonicated human insoluble Tau from patients with Alzheimer's disease (AD-PHF, fraction 8) (human) (UniProt P10636)
[3] = target: Tau seeds: brain fraction from transgenic mice expressing human Tau P301S (human) (UniProt P10636)
[4] = target: Tau seeds: brain fraction from transgenic mice expressing human Tau P301L (human) (UniProt P10636)
Chain of Tau seeds: brain fraction from transgenic mice expressing human Tau P301L (human) (P10636 other isoform, or with tags, fused parts or gaps P301L P301L limits assumed): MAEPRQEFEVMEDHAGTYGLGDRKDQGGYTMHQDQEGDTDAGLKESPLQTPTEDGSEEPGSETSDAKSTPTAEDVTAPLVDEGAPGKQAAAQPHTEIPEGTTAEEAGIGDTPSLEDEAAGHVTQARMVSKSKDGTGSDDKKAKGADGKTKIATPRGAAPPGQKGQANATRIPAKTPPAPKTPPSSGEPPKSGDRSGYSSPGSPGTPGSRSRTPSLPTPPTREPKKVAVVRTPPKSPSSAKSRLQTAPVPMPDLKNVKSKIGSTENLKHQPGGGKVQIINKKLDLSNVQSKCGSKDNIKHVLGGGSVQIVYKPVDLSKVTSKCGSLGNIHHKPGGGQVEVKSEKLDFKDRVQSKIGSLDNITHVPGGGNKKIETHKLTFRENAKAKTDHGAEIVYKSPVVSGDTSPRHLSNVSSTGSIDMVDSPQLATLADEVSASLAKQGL

[5] = target: Tau seeds: sonicated human insoluble Tau from patients with progressive supranuclear palsy (PSP-PHF, fraction 8) (human) (UniProt P10636)
Chain of Tau seeds: sonicated human insoluble Tau from patients with progressive supranuclear palsy (PSP-PHF, fraction 8) (human) (P10636 other isoform, or with tags, fused parts or gaps limits assumed): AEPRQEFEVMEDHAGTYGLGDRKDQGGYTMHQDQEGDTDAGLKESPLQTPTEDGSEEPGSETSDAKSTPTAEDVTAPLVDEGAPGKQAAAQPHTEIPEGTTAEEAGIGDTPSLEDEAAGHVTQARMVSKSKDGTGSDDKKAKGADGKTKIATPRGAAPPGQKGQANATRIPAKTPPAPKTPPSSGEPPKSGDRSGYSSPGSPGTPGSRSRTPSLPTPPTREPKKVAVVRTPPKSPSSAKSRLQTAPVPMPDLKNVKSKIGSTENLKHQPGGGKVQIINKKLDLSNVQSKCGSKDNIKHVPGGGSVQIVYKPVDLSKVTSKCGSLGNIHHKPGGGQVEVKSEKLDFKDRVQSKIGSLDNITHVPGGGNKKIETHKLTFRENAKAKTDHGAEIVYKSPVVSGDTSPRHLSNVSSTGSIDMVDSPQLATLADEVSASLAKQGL

Chain of Tau seeds: sonicated human insoluble Tau from patients with frontotemporal dementia (FTD-PHF) (human) (P10636 other isoform, or with tags, fused parts or gaps limits assumed): as above
Chain of Tau seeds: sonicated human insoluble Tau from patients with Alzheimer's disease (AD-PHF, fraction 8) (human) (P10636 other isoform, or with tags, fused parts or gaps limits assumed): as above
Chain of Tau seeds: brain fraction from transgenic mice expressing human Tau P301S (human) (P10636 other isoform, or with tags, fused parts or gaps P301S P301S): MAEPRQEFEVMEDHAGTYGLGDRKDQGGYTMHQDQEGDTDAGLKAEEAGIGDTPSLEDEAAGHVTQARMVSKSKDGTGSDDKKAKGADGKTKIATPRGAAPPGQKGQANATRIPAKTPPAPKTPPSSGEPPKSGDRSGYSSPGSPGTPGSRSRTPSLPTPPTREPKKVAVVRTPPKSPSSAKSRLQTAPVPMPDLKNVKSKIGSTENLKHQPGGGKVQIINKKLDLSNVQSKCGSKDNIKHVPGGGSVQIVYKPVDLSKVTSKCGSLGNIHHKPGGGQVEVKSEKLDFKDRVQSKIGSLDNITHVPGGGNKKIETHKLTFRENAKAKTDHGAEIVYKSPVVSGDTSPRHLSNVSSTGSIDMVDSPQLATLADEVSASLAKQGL
Chain of IPN002 of WO2014/028777A2 (antibody) (VH): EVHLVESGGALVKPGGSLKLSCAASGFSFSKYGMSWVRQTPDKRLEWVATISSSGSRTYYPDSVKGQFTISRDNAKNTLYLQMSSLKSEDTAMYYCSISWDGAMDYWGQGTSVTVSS
Chain of IPN002 of WO2014/028777A2 (antibody) (VL): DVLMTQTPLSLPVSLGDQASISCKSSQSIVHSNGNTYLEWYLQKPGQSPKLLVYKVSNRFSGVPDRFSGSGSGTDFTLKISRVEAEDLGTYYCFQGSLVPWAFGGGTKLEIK
Chain of HJ8.5 of WO 2014/008404 (antibody) (VH): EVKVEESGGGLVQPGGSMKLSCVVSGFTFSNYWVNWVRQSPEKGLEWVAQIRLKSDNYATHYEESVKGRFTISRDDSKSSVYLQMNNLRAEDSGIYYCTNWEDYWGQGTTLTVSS
Chain of HJ8.5 of WO 2014/008404 (antibody) (VL): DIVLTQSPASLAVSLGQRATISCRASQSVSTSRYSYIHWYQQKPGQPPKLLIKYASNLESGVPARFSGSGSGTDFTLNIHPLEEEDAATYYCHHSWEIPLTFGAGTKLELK

## IPN002 of WO2014/028777A2 (antibody)
[1]
  Imax (maximal efficacy at 300 nM), cellular Tau aggregation assay: 50%
[2]
  Imax (maximal efficacy at 300 nM), cellular Tau aggregation assay: 19%
[3]
  Imax (maximal efficacy at 300 nM), cellular Tau aggregation assay: 22%
[4]
  IC50, cellular Tau aggregation assay: 122 nM
  Imax (maximal efficacy at 300 nM), cellular Tau aggregation assay: 73%
[5]
  IC50, cellular Tau aggregation assay: 207 nM
  Imax (maximal efficacy at 300 nM), cellular Tau aggregation assay: 64%

## HJ8.5 of WO 2014/008404 (antibody)
[1]
  Imax (maximal efficacy at 300 nM), cellular Tau aggregation assay: 67%
[2]
  Imax (maximal efficacy at 300 nM), cellular Tau aggregation assay: 46%
[3]
  Imax (maximal efficacy at 300 nM), cellular Tau aggregation assay: 43%
[5]
  IC50, cellular Tau aggregation assay: 73 nM
  Imax (maximal efficacy at 300 nM), cellular Tau aggregation assay: 79%

## AT8 (MN1020) (antibody)
[1]
  Imax (maximal efficacy at 300 nM), cellular Tau aggregation assay: 36%
[2]
  Imax (maximal efficacy at 300 nM), cellular Tau aggregation assay: 19%
[5]
  Imax (maximal efficacy at 300 nM), cellular Tau aggregation assay: 25%

## PT3 of WO2013/096380A2 (antibody)
[1]
  IC50, cellular Tau aggregation assay: 1 nM
  Imax (maximal efficacy at 300 nM), cellular Tau aggregation assay: 80%
[2]
  IC50, cellular Tau aggregation assay: 32 nM
  Imax (maximal efficacy at 300 nM), cellular Tau aggregation assay: 69%
[3]
  IC50, cellular Tau aggregation assay: 350 nM
  Imax (maximal efficacy at 300 nM), cellular Tau aggregation assay: 56%
[4]
  IC50, cellular Tau aggregation assay: 26 nM
  Imax (maximal efficacy at 300 nM), cellular Tau aggregation assay: 69%
[5]
  IC50, cellular Tau aggregation assay: 47 nM
  Imax (maximal efficacy at 300 nM), cellular Tau aggregation assay: 55%
